The results in this text go back to paper PMC9080447 (Biochemistry, 2021).

Test in all cases: native MS
The target in data set [1] is His6-tagged Salmonella FrlB E224Q/H240N (Salmonella).
Data set [2] concerns the target wild-type Salmonella FrlB deglycase (Salmonella).
Data set [3] deals with the molecule itself.

As to “His6-tagged Salmonella FrlB E224Q/H240N (enzyme)”, in data set [1], the stoichiometry N amounted to 2.

As to “wild-type Salmonella FrlB deglycase (enzyme)”, in data set [2], the stoichiometry N was 2.

B1: His6-tagged Salmonella YidA (enzyme, UniProt A0A0F6B8Z9 1-281, looked up)
chain: MAIKLIAIDMDGTLLLPDHTISPAVKNAIAAAREKGVNVVLTTGRPYAGVHSYLKELHMEQPGDYCITYNGALVQKAGDGSTVAQTALSYDDYRYLEKLSREVGSHFHALDRNTLYTANRDISYYTVHESYVATIPLVFCEAEKMDPNTQFLKVMMIDEPAVLDRAIARIPAEVKEKYTVLKSAPYFLEILDKRVNKGTGVKSLVEALGIKPEEVMAIGDQENDIAMIEYAGMGVAMDNAIPSVKEVANFVTKSNLEDGVAWAIEKFVLNPDHSSGHFPAR
With B1, in data set [3], the “stoichiometry N” value was 2.

Broadly, the stoichiometry N is a count of units in the complex or per binding partner.
